Source: PMC4456660
pKd: −log10 of the molar value.

Columns and labels:
[1] = target: Ube2S, biotinylated on an N-terminal Avi tag (human) (UniProt Q16763); assay: SPR
[2] = target: UbcH10~Ub conjugate (UbcH10(C114K)-Avi conjugated with His6-tagged ubiquitin), biotinylated (human) (UniProt O00762); assay: SPR
UbcH10~Ub conjugate (UbcH10(C114K)-Avi conjugated with His6-tagged ubiquitin), biotinylated (human), sequence (O00762 whole entry C114K): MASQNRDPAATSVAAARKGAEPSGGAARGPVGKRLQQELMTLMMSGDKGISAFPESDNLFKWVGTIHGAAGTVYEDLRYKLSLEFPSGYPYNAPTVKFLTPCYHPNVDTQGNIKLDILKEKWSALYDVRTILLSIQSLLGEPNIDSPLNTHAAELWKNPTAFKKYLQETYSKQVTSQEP

Ube2S, biotinylated on an N-terminal Avi tag (human), sequence (Q16763 whole entry): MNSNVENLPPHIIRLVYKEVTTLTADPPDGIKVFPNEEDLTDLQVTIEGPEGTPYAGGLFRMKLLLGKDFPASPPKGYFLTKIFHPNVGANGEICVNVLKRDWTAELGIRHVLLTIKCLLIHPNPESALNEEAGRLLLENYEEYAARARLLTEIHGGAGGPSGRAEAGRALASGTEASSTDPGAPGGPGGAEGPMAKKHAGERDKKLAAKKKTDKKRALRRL

| pKd [1] | fold higher affinity than apo APC/C [2] | Substance |
| --- | --- | --- |
| 6.52 |  | apo APC/C (from UniProt Q9H1A4;Q9UJX6;P30260;Q9UJX5;Q9UJX4;Q13042;Q9UJX3;Q9UJX2;Q9UM13;Q9NYG5;Q8NHZ8;Q9BS18;P60006;Q96DE5) (complex) |
| 6.70 | 7 fold | APC/C^Cdh1.Hsl1 ternary complex (from UniProt Q9H1A4;Q9UJX6;P30260;Q9UJX5;Q9UJX4;Q13042;Q9UJX3;Q9UJX2;Q9UM13;Q9NYG5;Q8NHZ8;Q9BS18;P60006;Q96DE5;Q9UM11;P34244) |
